This is an account of results in patent US20210171652A1 (University of Pennsylvania, published 2021).

Substitutions are numbered along the chain they refer to. In names and notes the source's numbering stands.

Sequences and labels used below:
T1: human RhCE protein (RHCE; Rh17/Hr0 epitope) on human red blood cells (human, UniProt P18577 2-417)
T1 construct: Target on intact human RBCs of donors
T1 chain: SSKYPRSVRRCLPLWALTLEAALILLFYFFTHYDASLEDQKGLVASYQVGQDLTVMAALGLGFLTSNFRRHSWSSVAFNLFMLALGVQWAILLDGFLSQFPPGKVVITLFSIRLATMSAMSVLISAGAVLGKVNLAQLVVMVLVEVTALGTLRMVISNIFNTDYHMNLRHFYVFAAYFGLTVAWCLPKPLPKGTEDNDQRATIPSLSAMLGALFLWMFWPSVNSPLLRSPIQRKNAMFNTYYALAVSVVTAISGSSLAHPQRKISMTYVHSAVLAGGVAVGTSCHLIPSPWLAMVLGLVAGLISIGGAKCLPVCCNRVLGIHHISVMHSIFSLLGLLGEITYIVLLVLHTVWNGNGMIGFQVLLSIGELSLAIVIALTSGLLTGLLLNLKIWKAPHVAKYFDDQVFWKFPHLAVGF

T2: Band 3 / glycophorin A (Wright b, Wrb epitope) on human red blood cells (human, UniProt P02724 20-150)
T2 construct: whole, on cells; also called Band3/GPA; AE1
T2 sequence 1: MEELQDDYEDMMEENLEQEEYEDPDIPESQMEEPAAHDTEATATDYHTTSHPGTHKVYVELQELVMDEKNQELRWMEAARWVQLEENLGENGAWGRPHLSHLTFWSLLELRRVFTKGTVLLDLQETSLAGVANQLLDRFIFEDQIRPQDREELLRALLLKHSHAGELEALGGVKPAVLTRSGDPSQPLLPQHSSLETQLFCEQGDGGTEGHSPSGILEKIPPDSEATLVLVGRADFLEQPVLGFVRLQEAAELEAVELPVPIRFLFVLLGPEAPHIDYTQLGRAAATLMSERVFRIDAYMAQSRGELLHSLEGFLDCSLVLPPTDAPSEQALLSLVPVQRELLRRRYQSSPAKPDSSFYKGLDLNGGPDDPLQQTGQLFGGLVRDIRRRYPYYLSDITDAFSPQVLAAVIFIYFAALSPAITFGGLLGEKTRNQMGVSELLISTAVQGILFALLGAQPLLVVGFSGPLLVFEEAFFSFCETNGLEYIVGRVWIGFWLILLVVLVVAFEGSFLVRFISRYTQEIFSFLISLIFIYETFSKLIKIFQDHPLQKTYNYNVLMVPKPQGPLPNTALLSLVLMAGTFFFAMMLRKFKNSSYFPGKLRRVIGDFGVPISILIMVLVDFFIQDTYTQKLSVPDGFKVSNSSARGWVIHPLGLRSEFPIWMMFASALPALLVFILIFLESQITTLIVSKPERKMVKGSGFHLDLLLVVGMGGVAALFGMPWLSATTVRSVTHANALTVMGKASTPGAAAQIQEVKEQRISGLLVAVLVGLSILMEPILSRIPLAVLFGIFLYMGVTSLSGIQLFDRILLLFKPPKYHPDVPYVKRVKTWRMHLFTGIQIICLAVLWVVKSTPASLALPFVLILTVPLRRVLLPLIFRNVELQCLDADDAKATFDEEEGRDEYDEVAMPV
T2 sequence 2: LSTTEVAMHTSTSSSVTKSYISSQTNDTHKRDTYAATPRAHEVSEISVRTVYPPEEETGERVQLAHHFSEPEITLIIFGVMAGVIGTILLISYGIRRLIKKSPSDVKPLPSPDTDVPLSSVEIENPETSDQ

B1: aRh17 scFv (anti-RhCE), clone KP3-17 (scFv)
scFv: EVQLLESGPGLLKPSETLSLTCAVSGAPISNYWWSWIRQSPGKGLEWIGEIDGSIYTTYYNPSLKSRVAISKDTSKNRLSLKLTSVTAADTAVYYCAREGQNPLVPTYGSTGFGLDFWGHGLAVTVSSGGGGSGGGGSGGGGSAAELTQSPSSLSASVGDRVTITCQASQGISSWLAWYQQKPGKAPKLLIYKASSLQSGVPSRFSGSGSGTDFTLTISSLQSEDFATYYCQQYSSSPRTFGQGTKVEIK
modifications: radio-iodinated (125I) or amine-labelled with AlexaFluor 488/647 in the binding assays; sites not stated
notes: scFv produced as H2N-VH-(GGGGS)3-VL-FLAGx3-COOH in E. coli periplasm (pBAD/gIII); Macaque-derived; also called anti-Rh17 scFv; aRHCE scFv; not shown: C-terminal FLAGx3 tag
B2: KP3-11 Fab/phage clone (anti-RHCE, Rh17) (Fab, V domains shown)
VH: EVQLLESGPGLVKPSETLSLTCGVSGASISNYWWSWIRQSPGKGLEWIGEIDGSTYSTHYNPSLKGRVTISKDASKNQLSLRLTSVTAADTAVYYCAREGQDPLAPTLATSGSGLDSWGRGLVVSVSS
VL: ELQMTQSPSSLSASLGDRVTITCRASENVNNYLHWYQQKPGKAPKLLIYAASTLQSGVPSRFSGSGSGTDFTLTISSLQPEDVATYYCQHSYGTPLTFGGGTKVEIK
B3: KP3-14 Fab/phage clone (anti-RHCE, Rh17) (Fab, V domains shown)
VH: B2 VH with V12G, S125T
VL: ELQMTQSPSALSASVGDRVTISCRASQDIYSNLAWYQQKPGKAPKLLIYGASRLQSGIPSRFSASGAGTEFTLTISGLQPEDSAVYYCQEVHRNPFTFGPGTKLDIK
B4: linear peptide corresponding to the 6th extracellular loop of human RhD (peptide, UniProt Q02161 346-360, looked up)
peptide: LLVLDTVGAGNGMIG
notes: domain: 6th extracellular loop; Negative control peptide; also called RhD peptide (negative control)
B5: KP3-17 (anti-Rh17), as used in Example 8 (antibody, V domains shown)
VH: EVQLLESGPGLLKPSETLSLTCAVSGAPISNYWWSWIRQSPGKGLEWIGEIDGSIYTTYYNPSLKSRVAISKDTSKNRLSLKLTSVTAADTAVYYCAREGQNPLVPTYGSTGFGLDFWGHGLAVTVSS
VL: AAELTQSPSSLSASVGDRVTITCQASQGISSWLAWYQQKPGKAPKLLIYKASSLQSGVPSRFSGSGSGTDFTLTISSLQSEDFATYYCQQYSSSPRTFGQGTKVEIK
B6: KP3-17 Fab/phage clone (anti-RHCE, Rh17) (Fab, V domains shown)
VH: B5 VH
VL: B5 VL
B7: aWrb scFv (anti-Band3/GPA), clone KP2-23 (scFv)
scFv: EVQLLESGPGLVKPSETLSLTCTVSGSSLSSAYGWNWIRQPPGKGLEWIGSIGGSRDNTNYNPSLKRRVTISKDTSKNQFSLKLKSVTAADTAVYYCAQRGAYGYSYFDYWGQGVLVAVSSGGGGSGGGGSGGGGSAAELTLTQSPATLSLSPGETATLSCRASQTVGRNLAWYQQRPGQAPNLLVHSAYFRATGIPDRFSGSGSGTDFTLTISSLEPEDAGVYHCQQYNDLLPLTFGGGTKVEIK
modifications: radio-iodinated (125I) or amine-labelled with AlexaFluor 488/647 in the binding assays; sites not stated
notes: scFv produced as H2N-VH-(GGGGS)3-VL-FLAGx3-COOH in E. coli periplasm; also called anti-Wrb scFv; KP2-23 scFv; not shown: C-terminal FLAGx3 tag

Assay [1] addresses T1, human RhCE protein (RHCE; Rh17/Hr0 …). The assay can be described thus: direct binding of 125I-labelled protein to human RBCs, 4 h at 37 C. How it is done:
(§1) Recombinant proteins were radiolabeled with Na¹²⁵I (Perkin Elmer, Exton, Pa.) using pre-formulated iodination reagent (Pierce Iodination Reagent, Thermo Fisher Scientific, Carlsbad, Calif.) per the manufacturer's protocol. Radiochemical purity was verified by instant thin layer chromatography on silica and was typically >95%. Radiolabeled proteins were added to human RBCs at 0.02% hematocrit in PBS with 2% human AB serum. Binding was allowed to reach equilibrium over 4 hours at 37 degrees C. After binding, cell suspensions were rapidly washed at least four times with cold PBS. The resulting cell pellet was counted using a Perkin Elmer Wizard2 gamma counting system. Dissociation of the fusion proteins was assessed using RBCs saturated with radiolabeled proteins, washing unbound ligands, and placing in dilute suspensions prior to measurement of bound ligand at specified time points. Similar binding experiments were performed with fluorescently-labeled recombinant proteins and cells were analyzed by flow cytometry (Accuri C6, BD Biosciences, San Jose, Calif.). Fluorescently labeled proteins were produced by reaction with amine-reactive derivatives of fluorescent dyes AlexaFlour488 and AlexaFlour647 (typically 10- to 20-fold excess at pH 8) and purified using 10,000 MWCO centrifugal filter devices (EMD Milipore, Billerica, Mass.).

The target is the same in assay [2]. The assay can be described thus: dissociation of 125I-labelled protein from saturated human RBCs. Here is the method:
as §1

Assay [3] has the same target. The assay is described as follows: Fab/phage binding assays on human RBCs incl. rare RBC types lacking conserved antigens. How it is done: An IgG Fab/phage display library was prepared from the peripheral blood lymphocytes of a hyperimmunized macaque using homologous human V-region oligonucleotides (Siegel D L, R. M., Lee H, Blancher A., Production of large repertories of macaque mAbs to human RBCs using phage display. Transfusion, 1999. 39(S10): p. 92S, which is incorporated herein by reference). Fab/phage specific for human RBCs were isolated by panning on intact human RBCs. Monoclonal Fab/phage were grown to produce antibodies for immunoassays and their corresponding DNA was extracted for sequencing. To identify target epitopes, antibodies were screened against RBCs of known serologic phenotypes, including rare cells lacking highly conserved antigens, using standard immunohematologic techniques (Roback, J. D., Technical Manual. 2014: American Association of Blood Banks (AABB), which is incorporated herein by reference.)
Using antibody phage display, we identified non-human-primate Fab antibody fragments to antigenic determinants on human RBCs. By panning phage libraries on human RBCs, we produced a Fab/phage preparation with >10⁷ RBC-specific clones capable of agglutinating human RBCs. By performing binding assays against rare RBC types lacking highly conserved antigens and epitopes, we identified the target antigens of >30 of these clones. At least 34 clones bound the Wright b (Wrb) epitope formed by a Band 3/GPA interaction, present on the RBCs of essentially 100% of the human population. The Wrb epitope, determined by the protein sequence of Band 3, is a site of association between Band 3 with GPA, and GPA expression is simultaneously required for its presence on the membrane (Huang C H, Reid M E, Xie S S, Blumenfeld 00. Human red blood cell Wright antigens: a genetic and evolutionary perspective on glycophorin A-band 3 interaction. Blood. 1996; 87(9):3942-3947). At least 3 other clones bound to a highly-conserved epitope Rh17(Hr0) on human RhCE protein, also present on essentially 100% of the human population. Both these targets are specific for erythroid lineage (Rojewski M T, Schrezenmeier H, Flegel W A. Tissue distribution of blood group membrane proteins beyond red cells: evidence from cDNA libraries. Transfus Apher Sci.

Assay [4] has as its target B5. The assay is described as follows: peptide competition, flow cytometry on human erythrocytes; RhD loop peptide as negative control. The text has this: Flow cytometry was used to assess the binding of anti-Rh17 to human erythrocytes in the presence and absence of linear peptides corresponding to the amino acid sequence 6th extracellular loop of human RhD (negative control) and human RhCE. […] (* denotes p<0.05 by 1-way ANOVA with Tukey's post-hoc test).
Rh17 recognizes an epitope present in the 6th extracellular loop of human RhCE. Flow cytometry was used to assess the binding of Rh17 to human erythrocytes in the presence and absence of linear peptides corresponding to the amino acid sequence 6th extracellular loop of human RhD (negative control) and human RhCE (FIG. 26).
In general terms: Flow cytometry measures light scatter and fluorescence of single cells or particles in a stream.

Assay [5] addresses T1, human RhCE protein (RHCE; Rh17/Hr0 …). The assay is described as follows: Western blot of reduced, denatured proteins from human erythrocyte ghosts. How it is done: A Western blot was performed to assess the binding of KP3-17 (anti-Rh17) to proteins extracted from mouse and human erythrocyte ghosts. Because proteins were denatured in reducing SDS-PAGE buffer prior to gel electrophoresis, the presence of binding is due to interaction with linear, and not conformational, epitopes. This is in contrast to anti-RhCE mAbs described by other groups, which recognize conformational epitopes.
A Western blot was performed to assess the binding of Rh17 to proteins extracted from mouse and human erythrocyte ghosts (FIG. 25). Because proteins were denatured in reducing SDS-PAGE buffer prior to gel electrophoresis, the presence of binding is due to interaction with linear, and not conformational, epitopes. This is in contrast to anti-RhCE mAbs described by other groups, which recognize conformational epitopes.
Background: Immunoblotting shows a protein as a band on a membrane.

Assay [6] has as its target T2, Band 3 / glycophorin A (Wright b, Wrb …). The assay can be described thus: direct binding of 125I-labelled protein to human RBCs, 4 h at 37 C. How it is done: as §1
Assay [7] shares this target. The assay is described as follows: dissociation of 125I-labelled protein from saturated human RBCs. How it is done: as §1

A word on the Kd: it is a measure of binding affinity in units of concentration. Broadly, the koff is a measure of how fast the partners let go of each other. A low value points to slow dissociation. As for B1, in assay [1], the dissociation constant Kd turned out to be 0.0414 µM. In assay [2], this molecule showed a koff of 2e-05 s⁻¹.

For the molecule B2, the binding result in assay [3] was “binds”.

B3: the binding result in assay [3] was “binds”.

Take B4: in assay [4], the binding result was “no binding”.

With B5, in assay [5], the binding result was “binds”.

For the molecule B6, the binding result in assay [3] was “binds”.

In turn, B7 gave a Kd in assay [6] of 0.0213 µM. In assay [7], this molecule displayed a koff of 2.9e-05 s⁻¹.
